From patent US20260242478A1 (published 2026) come the findings set out here.

The target in experiment [1] is T1, Anti-CD28 scFv (VH - linker 1 - VL) (biotinylated (site not stated)). In words: clonal phage ELISA on captured anti-CD28 scFv, wells pre-incubated with soluble CD28 as competitor.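 Further: crude phage supernatants used, bound phage read out via HRP-linked anti-M13 antibody, with comparison wells given blocking buffer lacking soluble CD28.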
For experiment [2], the target named is T1, Anti-CD28 scFv (VH - linker 1 - VL). In words: clonal phage ELISA on biotinylated anti-CD28 scFv captured on neutravidin plates, anti-M13 HRP detection.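 Further: crude phage supernatants were used, and before phage were added the wells were pretreated with blocking buffer, either alone or with soluble CD28 protein, without washing in between.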
Method: Clonal phage were harvested as crude supernatants and screened via standard enzyme linked immunosorbent assays (ELISAs). […] Prior to the addition of clonal phage, wells were incubated with blocking buffer and CD28 soluble protein or blocking buffer alone. Without washing or aspirating, clonal phage supernatants were then added to the wells and incubated for a short time. Wells were then washed followed by detection of bound phage using a horse radish peroxidase conjugated anti-M13 antibody.
The target of experiment [3] is anti-CD28 scFv (VH - linker 1 - VL) (biotinylated (site not given)). In words: phage ELISA as before, wells pre-incubated with soluble CD28 (competitor). (In general: In an ELISA, binding on a coated surface is turned into a signal by an enzyme label.)
anti-CD28 scFv (VH - linker 1 - VL) (biotinylated (site not given)), sequence (scFv, as listed by the source): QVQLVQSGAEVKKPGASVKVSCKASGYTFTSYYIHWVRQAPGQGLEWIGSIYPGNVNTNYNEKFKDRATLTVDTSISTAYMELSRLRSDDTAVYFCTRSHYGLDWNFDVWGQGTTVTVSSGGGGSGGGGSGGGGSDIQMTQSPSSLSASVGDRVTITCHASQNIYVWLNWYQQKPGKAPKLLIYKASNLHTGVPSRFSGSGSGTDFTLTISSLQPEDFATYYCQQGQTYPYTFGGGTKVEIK
Experiment [4] concerns the target T2, anti-CD28 scFv (VH - linker 1 - VL) (biotinylated (site not stated)). In words: phage ELISA as above, wells pre-incubated with soluble CD28 (competitor).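 Further: ELISA of crude clonal phage supernatants added to wells pre-treated with soluble CD28 in blocking buffer, bound phage read out with HRP-conjugated anti-M13 antibody.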
Experiment [5] has as its target T2, anti-CD28 scFv (VH - linker 1 - VL). Description: phage ELISA; biotinylated anti-CD28 scFv on neutravidin plate, clonal phage supernatant, anti-M13-HRP detection.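 Further: before phage addition, wells were pretreated with soluble CD28 protein in blocking buffer, or with blocking buffer only as the comparison, then phage were added without washing.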

Where no end group is shown, it is not given here.

T1 sequence (scFv, as listed by the source): as above
T2 sequence (scFv, as listed by the source): as above

B1: Phage-141 (peptide)
peptide: MDWCPRSLWNVCFF
notes: tested as crude clonal phage supernatant
Consider B1, for which, in experiment [1], the “CD28 scFv signal in presence of CD28” value came to 0.356. Also, the “CD28 scFv signal” value in experiment [2] was found to be 2.13.

B2: Phage-142 (peptide)
peptide: MDWCPVILWDFCFN
notes: tested as crude clonal phage supernatant; also called position 11 is F in the position column
As for B2, the “CD28 scFv signal in presence of CD28” value in experiment [1] is 0.173. Moreover, the “CD28 scFv signal” value in experiment [2] stood at 2.03.

B3: Phage-81, clonal phage peptide … (peptide)
peptide: MDWCPRFLWSVCFN
notes: tested as crude clonal phage supernatant; not shown: pIII of the bacteriophage to which the peptide is fused
As for B3, in experiment [3], the “CD28 scFv signal in presence of CD28” value was 1.15.

B4: Phage-118 (peptide)
peptide: MDWCPRHLWDECFF
notes: as for B1
Consider B4, for which the “CD28 scFv signal in presence of CD28” value in experiment [1] is 0.663. Also, the “CD28 scFv signal” value in experiment [2] worked out at 2.46.

B5: Phage-133 (peptide)
peptide: MDWCPRFLWDECFF
notes: tested as crude clonal phage supernatant; also called position 7 is F in the position column
Turning to B5, the “CD28 scFv signal in presence of CD28” value in experiment [1] was determined as 0.246. Further, the “CD28 scFv signal” value in experiment [2] was determined as 2.28.

B6: Phage-148 (peptide, not shown: large carriers)
peptide: MHWCPEYLWNECFA
modifications: cysteine pairing not given here; also: displayed as fusion to phage pIII, linker and pIII sequence not given here
notes: Clonal phage of the Peptide-9 library
B6: the “CD28 scFv signal in presence of CD28” value in experiment [4] came to 0.092. Besides, in experiment [5], the “CD28 scFv signal” value worked out at 1.69.

B7: Phage-127 (peptide)
peptide: MDWCPRALWNECFA
notes: as for B1
Regarding B7, in experiment [1], the “CD28 scFv signal in presence of CD28” value was determined as 0.375. Also, the “CD28 scFv signal” value in experiment [2] amounted to 2.38.

B8: Phage-135 (peptide)
peptide: MDWCPKFLWHECFS
notes: as for B5
Take B8: the “CD28 scFv signal in presence of CD28” value in experiment [1] is 0.142. The “CD28 scFv signal” value in experiment [2] is 2.28.

B9: Phage-139 (peptide)
peptide: MDWCPRDLWDVCFA
notes: as for B1
B9: the “CD28 scFv signal in presence of CD28” value in experiment [1] was 0.28. In experiment [2], the “CD28 scFv signal” value was 2.16.

B10: Phage-146 (peptide, not shown: large carriers)
peptide: MDWCPRHLWSECFY
modifications: cysteine pairing not given here; also: fused to phage pIII protein, pIII and linker sequence not given here
notes: as for B6
As to B10, the “CD28 scFv signal in presence of CD28” value in experiment [4] was determined as 0.199. For the same molecule, in experiment [5], the “CD28 scFv signal” value stood at 1.92.

B11: Phage-123 (peptide)
peptide: MDWCPIHLWNECFA
notes: as for B1
As to B11, the “CD28 scFv signal in presence of CD28” value in experiment [1] is 0.203. The “CD28 scFv signal” value in experiment [2] was found to be 2.4.

B12: Phage-126 (peptide)
peptide: MDWCPRFLWNECFN
notes: as for B1
Consider B12, for which, in experiment [1], the “CD28 scFv signal in presence of CD28” value was 0.503. Further, in experiment [2], the “CD28 scFv signal” value was determined as 2.4.

B13: Phage-136 (peptide)
peptide: MHWCPIYLWDECFN
notes: as for B1
With B13, the “CD28 scFv signal in presence of CD28” value in experiment [1] stood at 0.193. Moreover, in experiment [2], the “CD28 scFv signal” value turned out to be 2.23.

B14: Phage-119 (peptide)
peptide: MDWCPRYLWHMCYS
notes: as for B1
Regarding B14, the “CD28 scFv signal in presence of CD28” value in experiment [1] is 1.17. Besides, in experiment [2], the “CD28 scFv signal” value is 2.42.

B15: Phage-130 (peptide)
peptide: MDWCPRYLWDACFF
notes: as for B1
With B15, in experiment [1], the “CD28 scFv signal in presence of CD28” value was determined as 0.168. In addition, the “CD28 scFv signal” value in experiment [2] amounted to 2.34.

B16: Phage-122 (peptide)
peptide: MDWCPRDLWDQCYA
notes: as for B1
B16: the “CD28 scFv signal in presence of CD28” value in experiment [1] came to 0.201. In addition, in experiment [2], the “CD28 scFv signal” value is 2.41.

B17: Phage-166 (peptide, not shown: large carriers)
peptide: MDWCPRHLWDLCFA
modifications: cysteine pairing not given here; also: displayed as fusion to phage pIII, linker and pIII sequence not given here
notes: as for B6
Consider B17, for which the “CD28 scFv signal in presence of CD28” value in experiment [4] worked out at 0.096. For the same molecule, the “CD28 scFv signal” value in experiment [5] was 0.925.
In the same order, the values of MDWCPRHLWDQCFA (peptide, not shown: large carriers, Clonal phage of the Peptide-9 library) [Phage-161] are 0.144 and 1.12.
In the same order, the values of MDWCPRHLWDLCFF (peptide, not shown: large carriers, Clonal phage of the Peptide-9 library) [Phage-153] are 0.182 and 1.4.

B18: Phage-144 (peptide)
peptide: MDWCPRHLWYACFN
notes: as for B1
As for B18, the “CD28 scFv signal in presence of CD28” value in experiment [1] was 0.159. Moreover, the “CD28 scFv signal” value in experiment [2] was 2.01.

B19: Phage-121 (peptide)
peptide: MDWCPRDLWHVCFF
notes: as for B1
On to B19, for which, in experiment [1], the “CD28 scFv signal in presence of CD28” value was 0.268. Also, in experiment [2], the “CD28 scFv signal” value was determined as 2.41.

B20: Phage-129 (peptide)
peptide: MDWCPSYLWTVCFA
notes: as for B1
For the molecule B20, the “CD28 scFv signal in presence of CD28” value in experiment [1] came out at 0.096. Also, the “CD28 scFv signal” value in experiment [2] stood at 2.34.

B21: Phage-134 (peptide)
peptide: MDWCPSYLWHECFA
notes: as for B1
For the molecule B21, the “CD28 scFv signal in presence of CD28” value in experiment [1] was found to be 0.198. The “CD28 scFv signal” value in experiment [2] stood at 2.28.

B22: Phage-140 (peptide)
peptide: MDWCPMDLWDVCFN
notes: as for B1
For the molecule B22, in experiment [1], the “CD28 scFv signal in presence of CD28” value is 0.263. Further, the “CD28 scFv signal” value in experiment [2] was 2.15.

B23: Phage-120 (peptide)
peptide: MDWCPRDLWHACFS
notes: as for B1
For the molecule B23, the “CD28 scFv signal in presence of CD28” value in experiment [1] is 0.173. In experiment [2], the “CD28 scFv signal” value stood at 2.41.

B24: Phage-125 (peptide)
peptide: MDWCPVSLWHVCFY
notes: as for B1
Regarding B24, in experiment [1], the “CD28 scFv signal in presence of CD28” value is 0.409. For the same molecule, the “CD28 scFv signal” value in experiment [2] was 2.4.

B25: Phage-137 (peptide)
peptide: MDWCPRYLWHECFH
notes: as for B1
Regarding B25, the “CD28 scFv signal in presence of CD28” value in experiment [1] was 0.308. Moreover, in experiment [2], the “CD28 scFv signal” value turned out to be 2.19.

B26: Phage-147 (peptide, not shown: large carriers)
peptide: MHWCPRDLWVVCFN
modifications: cysteine pairing not given here; also: fused to phage pIII protein, pIII and linker sequence not given here
notes: as for B6
B26: in experiment [4], the “CD28 scFv signal in presence of CD28” value came to 0.112. Besides, the “CD28 scFv signal” value in experiment [5] was 1.83.

B27: Phage-80, clonal phage peptide MDWCPMYLWNECFS (peptide)
peptide: MDWCPMYLWNECFS
notes: as for B3
Turning to B27, the “CD28 scFv signal in presence of CD28” value in experiment [3] worked out at 0.411.

B28: Phage-131 (peptide)
peptide: MDWCPRSLWIYCFN
notes: as for B1
With B28, in experiment [1], the “CD28 scFv signal in presence of CD28” value stood at 0.401. For the same molecule, in experiment [2], the “CD28 scFv signal” value amounted to 2.34.
Take MDWCPRDLWNVCFA (peptide, not shown: large carriers, Clonal phage of the Peptide-9 library) [Phage-154]: the “CD28 scFv signal in presence of CD28” value in experiment [4] was determined as 0.145. In addition, in experiment [5], the “CD28 scFv signal” value was 1.38.

B29: Phage-169 (peptide, not shown: large carriers)
peptide: MDWCPRDLWNVCFN
modifications: cysteine pairing not given here; also: displayed as fusion to phage pIII, linker and pIII sequence not given here
notes: as for B6
Take B29: the “CD28 scFv signal in presence of CD28” value in experiment [4] stood at 0.108. The “CD28 scFv signal” value in experiment [5] was found to be 0.74.
In the same order, the values of MDWCPRDLWAVCFA (peptide, not shown: large carriers, Clonal phage of the Peptide-9 library) [Phage-149] are 0.089 and 1.67.

B30: Phage-124 (peptide)
peptide: MDWCPRPLWDMCFF
notes: as for B1
For B30, the “CD28 scFv signal in presence of CD28” value in experiment [1] is 0.138. Further, the “CD28 scFv signal” value in experiment [2] is 2.4.

B31: Phage-128 (peptide)
peptide: MDWCPRDLWIECFF
notes: as for B1
Turning to B31, in experiment [1], the “CD28 scFv signal in presence of CD28” value stood at 0.137. Moreover, the “CD28 scFv signal” value in experiment [2] stood at 2.37.

B32: Phage-143 (peptide)
peptide: LDWCPLNLWDLCYF
notes: as for B1
As to B32, the “CD28 scFv signal in presence of CD28” value in experiment [1] was found to be 0.095. In addition, in experiment [2], the “CD28 scFv signal” value stood at 2.03.
Regarding MDWCPRHLWNVCFS (peptide, not shown: large carriers, Clonal phage of the Peptide-9 library) [Phage-150], in experiment [4], the “CD28 scFv signal in presence of CD28” value turned out to be 0.176. Also, in experiment [5], the “CD28 scFv signal” value was 1.61.

B33: Phage-132 (peptide)
peptide: MDWCPTYLWFECFN
notes: as for B1
B33: in experiment [1], the “CD28 scFv signal in presence of CD28” value came out at 0.224. The “CD28 scFv signal” value in experiment [2] came to 2.33.
Consider MDWCPKYLWDKCFH (peptide, not shown: large carriers, Clonal phage of the Peptide-9 library) [Phage-152], for which, in experiment [4], the “CD28 scFv signal in presence of CD28” value turned out to be 0.109. Further, the “CD28 scFv signal” value in experiment [5] was 1.54.

B34: Phage-145 (peptide, not shown: large carriers)
peptide: MDWCPKHLWIECFA
modifications: cysteine pairing not given here; also: fused to phage pIII protein, pIII and linker sequence not given here
notes: as for B6
On to B34, for which the “CD28 scFv signal in presence of CD28” value in experiment [4] came out at 0.132. Further, in experiment [5], the “CD28 scFv signal” value amounted to 1.98.
For the molecule MDFCPISLWHECFF (peptide, not shown: large carriers, Clonal phage of the Peptide-9 library) [Phage-151], in experiment [4], the “CD28 scFv signal in presence of CD28” value worked out at 0.129. For the same molecule, the “CD28 scFv signal” value in experiment [5] is 1.58.

B35: Phage-138 (peptide)
peptide: MDWCPTNLWHECFA
notes: as for B1
In the case of B35, in experiment [1], the “CD28 scFv signal in presence of CD28” value stood at 0.096. Besides, the “CD28 scFv signal” value in experiment [2] was determined as 2.16.
